From US20230181754A1 (BRIGHT PEAK THERAPEUTICS, published 2023)

How the values were obtained:
[1] = target: T1, recombinant biotinylated human Fc gamma receptor I (FcγRI/CD64) (human, UniProt P12314 16-288, limits assumed, biotinylated); experiment: AlphaLISA competition: free antibody competes with human IgG Fc on acceptor beads for biotinylated human FcγRI on streptavidin donor beads
T1 construct: also called FcγR1

[2] = target: T2, recombinant biotinylated human Fc gamma receptor IIa (FcγRIIa/CD32a 167H) (human, UniProt P12318 36-218, limits assumed, biotinylated); experiment: AlphaLISA competition: free antibody competes with human IgG Fc on acceptor beads for biotinylated human FcγRIIa on streptavidin donor beads
T2 sequence (looked up): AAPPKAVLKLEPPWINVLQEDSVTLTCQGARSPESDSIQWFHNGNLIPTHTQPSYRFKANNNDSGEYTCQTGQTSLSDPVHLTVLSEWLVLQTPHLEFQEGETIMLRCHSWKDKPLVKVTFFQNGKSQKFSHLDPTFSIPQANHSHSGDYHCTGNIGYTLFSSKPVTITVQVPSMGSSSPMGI

T1 sequence (P12314 16-288 limits assumed): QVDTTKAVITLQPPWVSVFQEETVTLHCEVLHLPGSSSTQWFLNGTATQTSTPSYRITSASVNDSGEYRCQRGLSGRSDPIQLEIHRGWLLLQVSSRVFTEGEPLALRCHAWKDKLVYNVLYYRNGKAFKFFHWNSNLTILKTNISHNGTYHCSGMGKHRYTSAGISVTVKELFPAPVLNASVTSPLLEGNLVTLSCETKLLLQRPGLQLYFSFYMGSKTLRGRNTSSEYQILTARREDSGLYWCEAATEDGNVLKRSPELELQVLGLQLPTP

B1: Durvalumab (unmodified anti-PD-L1 antibody) (antibody, human IgG1, kappa)
heavy: EVQLVESGGGLVQPGGSLRLSCAASGFTFSRYWMSWVRQAPGKGLEWVANIKQDGSEKYYVDSVKGRFTISRDNAKNSLYLQMNSLRAEDTAVYYCAREGGWFGELAFDYWGQGTLVTVSSASTKGPSVFPLAPSSKSTSGGTAALGCLVKDYFPEPVTVSWNSGALTSGVHTFPAVLQSSGLYSLSSVVTVPSSSLGTQTYICNVNHKPSNTKVDKRVEPKSCDKTHTCPPCPAPEFEGGPSVFLFPPKPKDTLMISRTPEVTCVVVDVSHEDPEVKFNWYVDGVEVHNAKTKPREEQYNSTYRVVSVLTVLHQDWLNGKEYKCKVSNKALPASIEKTISKAKGQPREPQVYTLPPSREEMTKNQVSLTCLVKGFYPSDIAVEWESNGQPENNYKTTPPVLDSDGSFFLYSKLTVDKSRWQQGNVFSCSVMHEALHNHYTQKSLSLSPGK
light: EIVLTQSPGTLSLSPGERATLSCRASQRVSSSYLAWYQQKPGQAPRLLIYDASSRATGIPDRFSGSGSGTDFTLTISRLEPEDFAVYYCQQYGSLPWTFGQGTKVEIKRTVAAPSVFIFPPSDEQLKSGTASVVCLLNNFYPREAKVQWKVDNALQSGNSQESVTEQDSKDSTYSLSSTLTLSKADYEKHKVYACEVTHQGLSSPVTKSFNRGEC
notes: also called Imfinzi; MEDI-4736
Which results are given for B1?
binding result [1]: binds; IC50 (read off the curve) [2]: ~400 nM
